The values that follow come from patent US20220332804A1 (CSL INNOVATION, published 2022).

What all share (test): SPR, antibody captured, C2 as analyte;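 also: biacore SPR at 37 °C, anti-C2 mAbs captured via goat anti-human IgG on CM5 chips, double-referenced sensorgrams fit to a 1:1 kinetic or steady-state model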
For orientation: Surface plasmon resonance follows binding to a sensor surface in real time, without labels.

In one experiment the target is T1, human C2 E490A (human, UniProt P06681 21-752).
T1 sequence: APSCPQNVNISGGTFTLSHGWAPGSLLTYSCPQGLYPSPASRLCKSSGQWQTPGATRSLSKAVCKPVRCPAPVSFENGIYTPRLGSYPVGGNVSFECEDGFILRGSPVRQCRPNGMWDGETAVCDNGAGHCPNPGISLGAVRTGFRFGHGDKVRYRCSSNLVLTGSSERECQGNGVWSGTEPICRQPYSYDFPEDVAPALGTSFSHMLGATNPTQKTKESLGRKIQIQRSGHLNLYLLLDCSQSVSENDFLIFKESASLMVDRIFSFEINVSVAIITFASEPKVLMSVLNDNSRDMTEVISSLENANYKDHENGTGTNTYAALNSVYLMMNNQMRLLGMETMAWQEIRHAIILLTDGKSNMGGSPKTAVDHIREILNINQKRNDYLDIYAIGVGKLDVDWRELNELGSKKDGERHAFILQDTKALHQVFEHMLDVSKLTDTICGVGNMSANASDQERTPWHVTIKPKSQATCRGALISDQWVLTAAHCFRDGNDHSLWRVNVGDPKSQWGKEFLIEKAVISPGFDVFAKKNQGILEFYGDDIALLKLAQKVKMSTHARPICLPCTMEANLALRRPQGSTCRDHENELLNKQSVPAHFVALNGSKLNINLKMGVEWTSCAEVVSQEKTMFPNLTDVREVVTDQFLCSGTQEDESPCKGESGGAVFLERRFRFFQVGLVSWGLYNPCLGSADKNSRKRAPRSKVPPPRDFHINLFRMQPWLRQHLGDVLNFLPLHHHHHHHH

For a further experiment, the target named is T2, human C2 E556A (human, UniProt P06681 21-752).
T2 sequence: T1 sequence with A470E, E536A

Another experiment addresses T3, human C2 E324A (human, UniProt P06681 21-752).
T3 sequence: T1 sequence with E304A, A470E

The target of the next experiment is T4, human C2 L620A (human, UniProt P06681 21-752).
T4 sequence: T1 sequence with A470E, L600A

Substitutions are numbered along the chain they refer to.

B1: RF16-226 (antibody, human IgG4 S228P, lambda)
heavy: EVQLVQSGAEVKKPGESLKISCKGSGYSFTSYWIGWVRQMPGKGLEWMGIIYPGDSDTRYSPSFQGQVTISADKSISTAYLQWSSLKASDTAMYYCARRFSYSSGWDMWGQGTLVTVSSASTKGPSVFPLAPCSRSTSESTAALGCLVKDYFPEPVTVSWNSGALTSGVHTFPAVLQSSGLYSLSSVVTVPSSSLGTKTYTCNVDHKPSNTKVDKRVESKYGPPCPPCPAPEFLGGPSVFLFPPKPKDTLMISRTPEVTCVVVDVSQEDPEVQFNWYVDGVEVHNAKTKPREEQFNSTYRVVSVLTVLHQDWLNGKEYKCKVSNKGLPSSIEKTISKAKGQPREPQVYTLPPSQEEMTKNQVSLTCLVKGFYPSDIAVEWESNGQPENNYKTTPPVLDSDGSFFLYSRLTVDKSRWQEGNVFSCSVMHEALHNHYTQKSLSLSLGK
light: SYELTQPPSVSVSPGQTARITCSGDALTSKYVAWYQQKSGLAPLLVIYEDTRRPSGIPAKFSGSSSGSVATLTISGAHGDDEADYYCYSTDASGHQRVFGGGTKLTVLSQPKAAPSVTLFPPSSEELQANKATLVCLISDFYPGAVTVAWKADGSPVKAGVETTKPSKQSNNKYAASSYLSLTPEQWKSHRSYSCQVTHEGSTVEKTVAPTECS
notes: pH-dependent anti-C2 antibody from a phage display library; also called WT
As to B1, the Kd (in general, the concentration at which binding is half-saturated) is 15.6 nM with human C2 E490A, 5.9 nM with human C2 E556A, 12.2 nM with human C2 E324A and 11.1 nM with human C2 L620A.
